Patent US20170298395A1, “AUTOTROPHIC HYDROGEN BACTERIA AND USES THEREOF” (Ohio State Innovation Foundation, priority 2011, published 2017)
Changes are numbered by the printed parent chain. Numbers in names are those of the source.

B1: wt CbbR: wild-type CbbR (R. eutropha), 317 amino acids, SEQ ID NO: 1 (protein)
chain: MSSFLRALTLRQLQIFVTVARHASFVRAAEELHLTQPAVSMQVKQLESVVGMALFERVKGQLTLTEPGDRLLHHASRILGEVKDAEEGLQAVKDVEQGSITIGLISTSKYFAPKLLAGFTALHPGVDLRIAEGNRETLLRLLQDNAIDLALMGRPPRELDAVSEPIAAHPHVLVASPRHPLHDAKGFDLQELRHETFLLREPGSGTRTVAEYMFRDHLFTPAKVITLGSNETIKQAVMAGMGISLLSLHTLGLELRTGEIGLLDVAGTPIERIWHVAHMSSKRLSPASESCRAYLLEHTAEFLGREYGGLMPGRRVA
B2: G98R (protein)
chain: B1 chain with G98R
B3: R272Q (protein)
chain: B1 chain with R272Q
B4: A117V (protein)
chain: B1 chain with A117V
B5: D144N (protein)
chain: B1 chain with D144N
B6: A167V (protein)
chain: B1 chain with A167V
B7: T232A (protein)
chain: B1 chain with T232A
B8: L79F (protein)
chain: B1 chain with L79F
B9: D148N (protein)
chain: B1 chain with D148N
B10: P269S/T299I (protein)
chain: B1 chain with P269S, T299I
B11: G205D (protein)
chain: B1 chain with G205D
B12: T232I (protein)
chain: B1 chain with T232I
B13: P221S/T299I (protein)
chain: B1 chain with P221S, T299I
B14: E87K/G242S (protein)
chain: B1 chain with E87K, G242S
B15: G205D/G118D (protein)
chain: B1 chain with G118D, G205D

These molecules were tested on cbb promoter. Details: in the presence of ATP.
Format: binding, R. eutropha

Row | Molecule | effect of ATP on CbbR binding to cbb promoter probe (phosphorimage, in words)
1 | B1 | enhancement of binding
2 | B2 | no enhancement of binding
3 | B3 | modest enhancement of binding

Same assay, conditions: in the presence of FBP

Row | Molecule | effect of FBP on CbbR binding to cbb promoter probe (phosphorimage, in words)
4 | B1 | no enhancement of binding

Same assay, conditions: in the presence of NADPH

Row | Molecule | effect of NADPH on CbbR binding to cbb promoter probe (phosphorimage, in words)
5 | B1 | modest enhancement of binding

Same assay, conditions: in the presence of Ru5P

Row | Molecule | effect of Ru5P on CbbR binding to cbb promoter probe (phosphorimage, in words)
6 | B1 | no enhancement of binding

Same assay, conditions: in the presence of RuBP

Row | Molecule | effect of RuBP on CbbR binding to cbb promoter probe (phosphorimage, in words)
7 | B1 | enhancement of binding
8 | B2 | modest enhancement of binding
9 | B3 | reduction of binding

These molecules were tested on RubisCO. Details: CA growth conditions.
Format: cell-based, Ralstonia eutropha

Row | Molecule | level of RubisCO relative to wild-type CbbR
10 | B4 | 2.2 fold
11 | B5 | 2.2 fold
12 | B6 | ~2.7 fold

Same assay, conditions: Table 9, chemoautotrophic growth conditions

Row | Molecule | Chemoautotrophic RubisCO activity
13 | B1 | 90 nmol/min/mg of protein
14 | B4 | 171 nmol/min/mg of protein
15 | B7 | 78 nmol/min/mg of protein
16 | B8 | 209 nmol/min/mg of protein
17 | B5 | 188 nmol/min/mg of protein
18 | B9 | 185 nmol/min/mg of protein
19 | B10 | 118 nmol/min/mg of protein
20 | B11 | 133 nmol/min/mg of protein
21 | B6 | 173 nmol/min/mg of protein
22 | B12 | 106 nmol/min/mg of protein
23 | B13 | 206 nmol/min/mg of protein
24 | B14 | 128 nmol/min/mg of protein

Same assay, conditions: Table 12, chemoautotrophic (induced) growth

Row | Molecule | Chemoautotrophic RubisCO activity
25 | B1 | 139 nmol/min/mg of protein
26 | B4 | 314 nmol/min/mg of protein
27 | B7 | 140 nmol/min/mg of protein
28 | B8 | 304 nmol/min/mg of protein
29 | B5 | 314 nmol/min/mg of protein
30 | B9 | 242 nmol/min/mg of protein
31 | B10 | 158 nmol/min/mg of protein
32 | B11 | 54 nmol/min/mg of protein
33 | B6 | 370 nmol/min/mg of protein
34 | B12 | 123 nmol/min/mg of protein
35 | B13 | 212 nmol/min/mg of protein
36 | B15 | 148 nmol/min/mg of protein
37 | B14 | 198 nmol/min/mg of protein

Same assay, conditions: Table 12, chemoheterotrophic (repressed) growth

Row | Molecule | Chemoheterotrophic RubisCO activity
38 | B1 | 0.1 nmol/min/mg of protein
39 | B4 | 6 nmol/min/mg of protein
40 | B7 | 4 nmol/min/mg of protein
41 | B8 | 4 nmol/min/mg of protein
42 | B5 | 26 nmol/min/mg of protein
43 | B9 | 8 nmol/min/mg of protein
44 | B10 | 14 nmol/min/mg of protein
45 | B11 | 10 nmol/min/mg of protein
46 | B6 | 15 nmol/min/mg of protein
47 | B12 | 5 nmol/min/mg of protein
48 | B13 | 16 nmol/min/mg of protein
49 | B15 | 30 nmol/min/mg of protein
50 | B14 | 6 nmol/min/mg of protein

Each molecule was assayed on cbb promoter. Details: Table 9, chemoautotrophic growth conditions.
Format: cell-based, Ralstonia eutropha

Row | Molecule | Chemoautotrophic β-galactosidase activity
51 | B1 | 3265 nmol/min/mg of protein
52 | B4 | 6793 nmol/min/mg of protein
53 | B7 | 4626 nmol/min/mg of protein
54 | B8 | 6840 nmol/min/mg of protein
55 | B5 | 6932 nmol/min/mg of protein
56 | B9 | 5909 nmol/min/mg of protein
57 | B10 | 3697 nmol/min/mg of protein
58 | B11 | 2634 nmol/min/mg of protein
59 | B6 | 7373 nmol/min/mg of protein
60 | B12 | 5005 nmol/min/mg of protein
61 | B13 | 4672 nmol/min/mg of protein
62 | B14 | 4312 nmol/min/mg of protein

Same assay, conditions: Table 12, chemoautotrophic (induced) growth

Row | Molecule | Chemoautotrophic β-galactosidase activity
63 | B1 | 3265 nmol/min/mg of protein
64 | B4 | 6793 nmol/min/mg of protein
65 | B7 | 5269 nmol/min/mg of protein
66 | B8 | 6840 nmol/min/mg of protein
67 | B5 | 6932 nmol/min/mg of protein
68 | B9 | 6442 nmol/min/mg of protein
69 | B10 | 3879 nmol/min/mg of protein
70 | B11 | 2241 nmol/min/mg of protein
71 | B6 | 7373 nmol/min/mg of protein
72 | B12 | 5005 nmol/min/mg of protein
73 | B13 | 5312 nmol/min/mg of protein
74 | B15 | 3939 nmol/min/mg of protein
75 | B14 | 4820 nmol/min/mg of protein

Same assay, conditions: Table 12, chemoheterotrophic (repressed) growth

Row | Molecule | Chemoheterotrophic β-galactosidase activity
76 | B1 | 3 nmol/min/mg of protein
77 | B4 | 254 nmol/min/mg of protein
78 | B7 | 212 nmol/min/mg of protein
79 | B8 | 218 nmol/min/mg of protein
80 | B5 | 809 nmol/min/mg of protein
81 | B9 | 343 nmol/min/mg of protein
82 | B10 | 617 nmol/min/mg of protein
83 | B11 | 488 nmol/min/mg of protein
84 | B6 | 768 nmol/min/mg of protein
85 | B12 | 303 nmol/min/mg of protein
86 | B13 | 655 nmol/min/mg of protein
87 | B15 | 1168 nmol/min/mg of protein
88 | B14 | 303 nmol/min/mg of protein

These molecules were tested on Ralstonia eutropha cbbR deletion reporter strain. Details: chemoautotrophic, CO2/H2/O2 atmosphere, minimal media.
Format: cell-based

Row | Molecule | Doubling Time
89 | B8 | 5.6 h
90 | B5 | 6.8 h
91 | B11 | 7.8 h
92 | B14 | 6.0 h

Each molecule was assayed on cbbL transcript. Details: chemoautotrophic growth, 26 cycles of PCR.
Format: cell-based, Ralstonia eutropha

Row | Molecule | increase in transcription over wild type CbbR (RT-PCR, FIG. 22)
93 | B5 | 1.8 fold
94 | B6 | 4.1 fold

Same assay, conditions: chemoautotrophic growth, OD 0.2

Row | Molecule | increase in cbb transcript over wild type CbbR (RT-PCR, FIG. 21)
95 | B4 | 1.9 fold
96 | B5 | 2.4 fold
97 | B6 | 3.3 fold
